We go through one sequence from publication PMC6599224.

The target in this series is T1, IscR-WT (Pseudomonas aeruginosa PAO1) (UniProt Q9HXI7).
T1 sequence: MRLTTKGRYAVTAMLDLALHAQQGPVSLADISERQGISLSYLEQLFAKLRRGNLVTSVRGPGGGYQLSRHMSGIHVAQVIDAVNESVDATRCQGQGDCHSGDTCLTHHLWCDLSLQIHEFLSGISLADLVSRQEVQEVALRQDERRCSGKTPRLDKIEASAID
Nature of the series: DNase I footprinting. Conditions: EMSA: 20 mM Tris-HCl pH 8.0, 50 mM KCl, 4 mM MgCl2, 0.5 mM EDTA, 0.02 mg/ml BSA, 5 mM DTT, 10% glycerol, 200 ng poly(dI-dC), 3 fmol probe in 25 ul, 25 C …. (In EMSA bound probe runs differently from free probe, usually more slowly.)

In the case of “GCCTTTCTGCGGGAGCTGGCCATCGACGTTGACCGGGTTGCCCTTGAGAGTCACTTGAGCCATTGCGTTGATCCTTCTAGTCAGTGAGAAGCCGCCGGCCCTGTGGCCGGCGGCGGAAGCATTCGGGGCCGGCGACGATGCTAGCACGCTTTACCCGAGCGAAAACCTCGGGTTTGAGCATCGCCGTCCCCCGAGGCTCAACTCCTGGCCTTGGCGAAATACTCCCGGGTC (double strand) [tpx promoter]”, the binding result is on record as “binds”.
